Laboratory results taken from US20220396794A1, “APTAMERS AGAINST TRANSFERRIN RECEPTOR (TfR)” (APTERNA LIMITED, priority 2019, published 2022).

Experiments:
[1] = system: PANC-1 cells; test: Live-cell confocal imaging for aptamer internalization, PANC-1; type: cell-based, human; conditions: Cy3-labeled aptamer 200 nM, 2-h incubation, PANC-1, confocal microscopy
Procedure: (§1) Live-cell confocal imaging for aptamer internalization. 1×10^5 HepG2 or PANC-1 cells were seeded in 35-mm glass-bottom dishes (MatTek, Ashland, Mass.) and grown in appropriate media for 24 h. Aptamer RNAs were labeled with Cy3 fluorescent dye using the Cy3 Silencer siRNA labeling kit (Thermo Fisher Scientific, Waltham, Mass.). Cy3-labeled aptamers in binding buffer (30 mM Tris-HCl, pH 7.5; 150 mM NaCl; 5 mM MgCl2; 100 μg/mL yeast tRNA) were added to the cells at 200 nM and incubated at 37° C. for 2 h. Before imaging, cells were washed with DPBS twice. Live-cell confocal imaging was performed with a Zeiss LSM 510 Meta inverted two-photon confocal microscope system using a C-Apo 40×/1.2NA water immersion objective, and AIM 4.2 software (Carl Zeiss, Jena, Germany).

[2] = system: PANC-1 cells; test: Co-localization assay with early endosome, late endosome and lysosome markers; type: cell-based, human; conditions: Cy3 labelled aptamer 200 nM, 2 h, live cells expressing GFP-Rab5a, Rab7a or Lamp1
Procedure: Co-localization assay. 1×10^5 PANC-1 cells were seeded in 35 mm glass-bottom dishes (MatTek, Ashland, Mass.) and grown in appropriate media for 24 h. CellLight™ Early endosome-GFP BacMam 2.0 (Thermo Fisher, C10586, CellLight™ Late endosome-GFP BacMam 2.0 (Thermo Fisher, C10588), or CellLight™ Lysosome-GFP BacMam 2.0 lysosome-GFP (Thermo Fisher, C10596) of 20 μL were added and incubated at 37° C. for 16 h. After confirmation of GFP expression, chemically synthesized TR14 labelled with Cy3 at 200 nM was incubated at 37° C. for 2 h. The co-localization was assessed on live cells by confocal microscopy.

[3] = system: PANC-1 cells; test: Flow cytometry-based binding assay; type: cell-based, human; conditions: Cy3-labelled aptamer 500 nM, 20 minutes in ice, PANC-1, compared with initial RNA library pool
Procedure: Flow cytometry-based binding assays. Aptamer binding was assessed by flow cytometry. For the assay, the PANC-1 cells were detached using Accutase, washed with PBS and suspended in binding buffer. Next, chemically synthesized aptamers labeled with Cy3 at 500 nM were added to target cells for 20 minutes in ice. Cells were washed with binding buffer and immediately analyzed by NovoCyte (ACEA Biosciences). For the exclusion of dead cells, 4′6′-diamidino-2-phenylindole (DAPI) (1 μg/ml) was used. The data were analyzed with NovoExpress software.

[4] = target: T1, TfR1 (Homo sapiens, UniProt P02786); test: Cross-reactivity by live cell confocal imaging, U87MG cells (express TfR1, not TfR2); type: cell-based; conditions: Cy3-labelled aptamer, U87MG cells (TfR1 only)
T1 construct: The U87MG cells only express TfR1, not TfR2; endogenous in cells; host or cells: U87MG (U-87 MG, ATCC HTB-14)
T1 sequence (P02786 whole entry): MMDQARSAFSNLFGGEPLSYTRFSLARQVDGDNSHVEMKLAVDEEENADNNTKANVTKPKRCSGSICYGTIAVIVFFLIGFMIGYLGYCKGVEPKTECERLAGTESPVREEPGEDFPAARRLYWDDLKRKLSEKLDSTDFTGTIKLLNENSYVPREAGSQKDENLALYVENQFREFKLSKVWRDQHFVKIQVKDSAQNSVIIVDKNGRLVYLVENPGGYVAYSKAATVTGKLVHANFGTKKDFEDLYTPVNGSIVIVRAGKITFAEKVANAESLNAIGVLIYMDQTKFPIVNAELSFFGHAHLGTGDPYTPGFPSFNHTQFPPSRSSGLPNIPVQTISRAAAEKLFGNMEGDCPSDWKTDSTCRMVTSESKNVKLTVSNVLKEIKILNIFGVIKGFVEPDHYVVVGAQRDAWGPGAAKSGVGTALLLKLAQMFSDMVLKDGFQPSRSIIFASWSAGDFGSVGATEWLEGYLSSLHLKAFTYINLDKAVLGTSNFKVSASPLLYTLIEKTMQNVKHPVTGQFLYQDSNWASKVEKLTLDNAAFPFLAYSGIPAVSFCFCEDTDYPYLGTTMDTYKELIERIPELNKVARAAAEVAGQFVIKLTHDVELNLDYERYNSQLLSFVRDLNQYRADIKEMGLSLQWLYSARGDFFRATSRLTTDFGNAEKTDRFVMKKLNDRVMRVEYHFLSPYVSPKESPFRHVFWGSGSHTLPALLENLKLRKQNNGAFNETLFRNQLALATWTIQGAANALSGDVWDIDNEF
Procedure: (§2) Cell line. HepG2 (Hepatocarcinoma, HB-8065) and PANC-1 (Pancreatic epithelioid carcinoma, CRL-1469), U-87 MG (Glioblastoma, HTB-14) were purchased from the American Type Culture Collection (ATCC, Manassas, Va.). The cells were cultured according to the suppliers' instructions. TB10 human glioma cell line was obtained from Vittorio de Franciscis lab in Italy. The cells were cultured according to the suppliers' instructions.
(§3) To determine the potential cross-reactivity of the parent TR14, S2 (43-nt) and ST1-3 (22-nt) truncates, we tested chemically synthesized parent TR14, TR14-[…] or TR14-ST1-3 aptamer labelled with Cy3 on live cells imaging by confocal microscopy. To test this, we choose two glioblastoma cell lines (U87MG and TB10) that are selectively expressed of TfR1 or TfR2. The U87MG cells only express TfR1, not TfR2. In contrast, TB10 expresses TfR2, not TfR1.

[5] = target: T2, hTfR1 (extracellular domain of hTfR, His6-tagged) (Homo sapiens, UniProt P02786); test: Surface plasmon resonance-based biosensor assay (Biacore T100), aptamer-hTfR binding affinity and kinetics
T2 construct: (NP_003225.2) (Cys 89-Phe 760); His6 (N); purchased Sino Biological Inc 11020-H07H; host or cells: HEK293
T2 sequence (P02786 89-760): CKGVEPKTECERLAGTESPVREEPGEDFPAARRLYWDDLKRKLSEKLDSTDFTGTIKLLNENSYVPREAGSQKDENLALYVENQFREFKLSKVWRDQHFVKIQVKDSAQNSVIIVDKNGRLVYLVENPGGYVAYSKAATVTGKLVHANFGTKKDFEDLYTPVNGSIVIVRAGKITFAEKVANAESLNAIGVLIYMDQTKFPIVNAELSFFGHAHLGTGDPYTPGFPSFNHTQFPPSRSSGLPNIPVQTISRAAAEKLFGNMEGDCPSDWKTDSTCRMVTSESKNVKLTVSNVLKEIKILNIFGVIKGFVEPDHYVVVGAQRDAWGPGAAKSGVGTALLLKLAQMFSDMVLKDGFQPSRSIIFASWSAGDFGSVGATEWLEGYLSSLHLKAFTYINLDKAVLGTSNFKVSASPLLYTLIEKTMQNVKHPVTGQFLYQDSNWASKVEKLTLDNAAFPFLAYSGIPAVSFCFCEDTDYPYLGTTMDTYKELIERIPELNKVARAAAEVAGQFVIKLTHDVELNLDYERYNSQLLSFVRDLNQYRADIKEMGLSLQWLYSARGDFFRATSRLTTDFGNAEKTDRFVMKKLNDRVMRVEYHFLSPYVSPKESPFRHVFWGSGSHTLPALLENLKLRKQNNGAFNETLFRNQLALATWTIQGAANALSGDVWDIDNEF
Text: Recombinant target protein. hTfR was purchased from Sino Biological Inc (11020-H07H, Beijing, P.R. China). The extracellular domain of hTfR (NP_003225.2) (Cys 89-Phe 760) was expressed with a His6-tag at the N-terminus in human cells (HEK293).
Surface plasmon resonance-based biosensor assay. The Biacore T100 (GE Healthcare, Uppsala, Sweden) was used to monitor label-free interactions of truncated TR14-hTfR1 in real time. The biotinylated aptamer was coupled to a streptavidin-coated Biacore chip (SensorChip SA, BR-1003-98, General Electric Company) by an injection in binding buffer at a concentration of 25 μg/mL (30 mM Tris-HCl, pH 7.5; 150 mM NaCl; 5 mM MgCl2) at 10 uL/min. The RNA was refolded by heating to 65° C., followed by cooling to 37° C., before immobilization. To measure binding kinetics, five concentrations of purified hTfR1 protein were injected at a flow rate of 10 uL/min. After binding, the surface was regenerated by injecting 50 mM NaOH at a flow rate of 15 μL/min for 20 s. Data from the control surface were subtracted. BIAevaluation software (GE Healthcare) was used for analysis. The binding data was fit to a 1:1 binding with a mass transfer model to calculate kinetics parameters as previously described (Hernandez et al, 2009; Soontornworajit et al, 2011)

[6] = system: PANC-1 cells; test: Competition assays with human transferrin or human transferrin receptor antibodies; type: cell-based; conditions: aptamer 200 nM
Procedure: Competition assays. For competition assays with human transferrin or human transferrin receptor antibodies, 5×10^3 PANC-1 cells/well were seeded in 96-well plates and grown in one day. Cells were pre-incubated with TR14 at 200 nM for 20 min on ice with PBS. After washing with PBS, human transferrin conjugated with Alexa-488 at 25 μg/mL or human transferrin receptor antibody (2 μL/1×10^4 cells) conjugated with FITC were added to cells and the cells were incubated at 37° C. for 40 min. Afterward, the cells were washed with HBSS twice to remove cell surface binders. The intensity of fluorescence was quantified using plate reader (Molecular device, SpectraMax iD5). The intensity was normalized with aptamer non-treated control cells (mock).

[7] = system: HepG2 cells; test: Live-cell confocal imaging for aptamer internalization, HepG2; type: cell-based, human; conditions: Cy3-labeled aptamer 200 nM, 2-h incubation, HepG2, confocal microscopy
Procedure: as §1

[8] = system: PANC-1 cells; test: Cellular uptake inhibition assay with endocytosis inhibitors; type: cell-based, human; conditions: Cy3-aptamer 200 nM, 1 hour
Procedure: Cellular uptake inhibition assay. 5×10^3 PANC-1 cells/well were seeded in 96-well plates one day before assay. PANC-1 cells were left either pretreated or untreated with chlorpromazine (CPZ, clathrin endocytosis inhibitor, 10 μg/mL), chloroquine (CQ, clathrin endocytosis inhibitor, 20 μg/mL), dynasore (dynamine inhibitor, 80 μM), genistein (GEZ, caveolae/lipid mediated endocytosis inhibitor, 50 μg/mL), or, cytochalasin D (Cyto D, 5 μM) at 37° C. for 30 min. Subsequently, cells were washed with DPBS and incubated with Cy3-labeled aptamers at 200 nM at 37° C. f for 1 hour. Following incubation, cells were washed with HBSS to remove surface-bound aptamers. Cellular uptake was quantified by fluorescence using a plate reader (Molecular device, SpectraMax iD3). The inhibition of uptake was normalized with inhibitor non-treated groups (mock)

[9] = target: T3, TfR2 (Homo sapiens, UniProt Q9UP52); test: Cross-reactivity by live cell confocal imaging, TB10 cells (express TfR2, not TfR1); type: cell-based; conditions: Cy3-labelled aptamer, TB10 cells (TfR2 only)
T3 construct: In contrast, TB10 expresses TfR2, not TfR1; endogenous in cells; host or cells: TB10 human glioma cells
T3 sequence (Q9UP52 1-801): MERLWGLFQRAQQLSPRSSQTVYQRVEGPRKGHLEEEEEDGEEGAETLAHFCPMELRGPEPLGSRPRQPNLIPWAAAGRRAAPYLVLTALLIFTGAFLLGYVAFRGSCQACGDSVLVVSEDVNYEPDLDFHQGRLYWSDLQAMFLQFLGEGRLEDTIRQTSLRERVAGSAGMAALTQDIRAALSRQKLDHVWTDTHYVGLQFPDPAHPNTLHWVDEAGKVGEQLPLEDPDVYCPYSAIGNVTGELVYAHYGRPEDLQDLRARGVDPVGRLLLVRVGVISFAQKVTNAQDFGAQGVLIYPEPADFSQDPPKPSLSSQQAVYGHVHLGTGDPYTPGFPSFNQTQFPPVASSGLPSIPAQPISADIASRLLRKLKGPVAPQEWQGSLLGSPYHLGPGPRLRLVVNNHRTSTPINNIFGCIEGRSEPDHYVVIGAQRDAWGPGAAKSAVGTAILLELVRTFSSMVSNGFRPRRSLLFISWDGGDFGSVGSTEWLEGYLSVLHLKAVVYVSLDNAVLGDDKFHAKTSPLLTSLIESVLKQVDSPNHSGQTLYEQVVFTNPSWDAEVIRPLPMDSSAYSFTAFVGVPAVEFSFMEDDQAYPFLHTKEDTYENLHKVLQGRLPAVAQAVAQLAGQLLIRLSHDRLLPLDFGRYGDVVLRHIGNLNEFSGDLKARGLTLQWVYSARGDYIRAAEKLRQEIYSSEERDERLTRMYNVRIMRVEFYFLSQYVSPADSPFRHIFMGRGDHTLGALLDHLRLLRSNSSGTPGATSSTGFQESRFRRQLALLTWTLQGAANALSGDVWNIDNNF
Procedure: as §2, §3

[10] = Biacore T100, biotinylated aptamer on streptavidin chip, hTfR1 protein injected, 1:1 binding with mass transfer
[11] = label-free biosensor assay in real-time

B1: TR14: 87-nucleotide anti-hTfR 2′F-RNA aptamer identified after nine rounds of protein SELEX; SEQ ID NO:1 (nucleic acid)
chain: GGGAGACAAGAAUAAACGCUCAAUGCGUUCACGUUUAUUCACAUUUUUGAAUUGAGCAUGAGCUUCGACAGGAGGCUCACAACAGGC
modifications: 2'-fluoro RNA aptamer from SELEX, modified positions not given here
cell internalization [1]: successfully internalized
subcellular co-localization with early endosome, late endosome and lysosome [2]: multiple co-localizations
cell surface binding by flow cytometry [3]: enriched cell surface binding
binding to TfR1 [4]: bound to both TfR1 and TfR2
ka (1/Ms), measured association rate [5, 10]: 6780 M⁻¹ s⁻¹
kd (1/s), measured disassociation rate [5, 10]: 1.68e-06 s⁻¹
association (ka) rate constant [5, 11]: 6780 M⁻¹ s⁻¹
dissociation (kd) rate constant [5, 11]: 1.68e-06 s⁻¹
Kd ([5]; label-free biosensor assay in real-time, read-out: equilibrium dissociation constant (K^D) for hTfR): 0.0317 nM
competition with transferrin receptor antibodies ([6]; FITC-conjugated human transferrin receptor antibody): did not compete
internalized transferrin after pre-incubation with aptamer ([6]; human transferrin-Alexa-488 25 μg/mL): significantly inhibited
cell internalization [7]: successfully internalized
uptake of aptamer after pre-treatment with clathrin mediated endocytosis (CME) inhibitors ([8]; chlorpromazine 10 μg/mL, chloroquine 20 μg/mL or dynasore 80 μM): inhibited significantly
uptake of aptamer after pre-treatment with clathrin independent endocytosis (CIE) inhibitors ([8]; genistein 50 μg/mL or cytochalasin D 5 μM): not interfered
binding to TfR2 [9]: bound to both TfR1 and TfR2
